This note sets out measurements from PMC12819147 (2025).

Assay [1] concerns the target Schizosaccharomyces pombe Ccr4–Not complex with an FITC label on the Not9 subunit (S. pombe) (UniProt P87112). As to the kind of experiment: fluorescence polarisation; fluorescence anisotropy; Puf3 constructs titrated into 25 nM Ccr4–Not with FITC on Not9; 20 mM HEPES pH 8, 100 mM NaCl, 0.5 mM TCEP; quadratic fit; apparent KD. Background: Fluorescence polarisation rises when a labelled molecule tumbles more slowly, as on binding a larger partner.

The target in assay [2] is recombinant full-length H. sapiens CCR4–NOT deadenylase complex (human).
For assay [3] the target is unchanged. The source holds these as a separate data set.
Assay [4] addresses Schizosaccharomyces pombe Ccr4–Not complex, full-length, unlabeled (Not1, Not2, Not3, Not4, Not9, Ccr4, Caf1) (S. pombe) (UniProt P87112).
The target in assay [5] is Schizosaccharomyces pombe Ccr4–Not complex with an FITC label on the Not9 subunit (S. pombe, UniProt P87112 1-2100; P87240 1-306; O13870 1-640; Q92368 1-283; O74874 1-690; O74856 …, fluorescein (FITC label) from a CoA–fluorescein conjugate on the YbbR tag at the N terminus). As to the kind of experiment: FP; apparent.

As for “Puf3 variant with residues 53–68 and 217–232 both replaced with a GSN linker (from UniProt O94462 1-52; O94462 69-216; O94462 233-732) (natural protein)”, the Kd in assay [1] amounted to 10000 nM.

On to “PUM1^Δ587 (from UniProt Q14671 588-1186) (domain or fragment)”, for which the fold decrease in stimulation of deadenylation by human CCR4–NOT (in vitro targeted deadenylation assay) in assay [2] was found to be 4 fold. The stimulation of removal of the poly(A) tail by human CCR4–NOT in assay [3] came out at 10 fold.

B1: Puf3 residues 109–258, GST–lipoyl tag fusion with no PUM domain (domain or fragment)
chain: SANHHGNPFPNGKQSIKAMPSLVNLQEDSVISKFPNSLEVPFRKRSESTSSSLSGLHSDLRPLKTELYGQLNSECGARFPQTLKSPLTPIGGDSARTVSASTARTSDKFFPRHTRAHSDFWIPATSKPSRHASHSSIGDLTTITQSSISS
As for B1, the Kd in assay [1] was 800 nM.

B2: Puf3 variant with residues 53–68 replaced with a GSN linker (natural protein)
chain: MFTAVNSNPNASESISGNSAFNFPSAPVSSLDTNNYGQRRPSLLSGTSPTSSSNKQASLESPVSYSNPIPSLTWLSLDGDSPDSLVSTPTAPSANHHGNPFPNGKQSIKAMPSLVNLQEDSVISKFPNSLEVPFRKRSESTSSSLSGLHSDLRPLKTELYGQLNSECGARFPQTLKSPLTPIGGDSARTVSASTARTSDKFFPRHTRAHSDFWIPATSKPSRHASHSSIGDLTTITQSSISSGSGSFKPSWDGSFDSSLMAHQSYGTSPAFANGNSPTLKNDSSFFGSASVRPTVSPIGTSFRQSLPDISAFGIPKTETNPSEVVAPGTIPISVLPTSNFSAATPANPSLINQNGQEFLQQSRVLYLFHANKQRHFELSDILGNVVLFSTDQHGSRFIQQKLATATEEEREAVFQEIASTSCLQLMMDIFGNYVVQKYFEFGNEKQKQILLSQIKGHVFSLSLQMYGCRVVQKAIEYISPEHQVQLIQELDGHVLDCVCDQNGNHVIQKAIECIDTGHLQFILRALRPQIHVLSAHPYGCRVIQRAIEHCHSERKLIIEELLPHILKLTQDQYGNYVVQHILRTGSESDKKYIFDLMIDHLLFLSCHKFASNVVERCISYISDVDRRRILNKIISEKAENCSILMLMMKDKYANYVIQKLLDASPEEERDLLISYIYPHISVLKKFTYGKHLIMSVERFRQKSISAVPKLASKECK
In turn, B2 had a fold decrease in stimulation of Ccr4–Not-mediated deadenylation (in vitro targeted deadenylation assay, t1/2) in assay [4] of 2 fold. In addition, the Kd in assay [5] is 290 nM.

B3: Puf3 variant with residues 217–232 replaced with a GSN linker (natural protein)
chain: MFTAVNSNPNASESISGNSAFNFPSAPVSSLDTNNYGQRRPSLLSGTSPTSSFFNSSMISSNYTFPHGSNKQASLESPVSYSNPIPSLTWLSLDGDSPDSLVSTPTAPSANHHGNPFPNGKQSIKAMPSLVNLQEDSVISKFPNSLEVPFRKRSESTSSSLSGLHSDLRPLKTELYGQLNSECGARFPQTLKSPLTPIGGDSARTVSASTARTSDKTSKPSRHASHSSIGDLTTITQSSISSGSGSFKPSWDGSFDSSLMAHQSYGTSPAFANGNSPTLKNDSSFFGSASVRPTVSPIGTSFRQSLPDISAFGIPKTETNPSEVVAPGTIPISVLPTSNFSAATPANPSLINQNGQEFLQQSRVLYLFHANKQRHFELSDILGNVVLFSTDQHGSRFIQQKLATATEEEREAVFQEIASTSCLQLMMDIFGNYVVQKYFEFGNEKQKQILLSQIKGHVFSLSLQMYGCRVVQKAIEYISPEHQVQLIQELDGHVLDCVCDQNGNHVIQKAIECIDTGHLQFILRALRPQIHVLSAHPYGCRVIQRAIEHCHSERKLIIEELLPHILKLTQDQYGNYVVQHILRTGSESDKKYIFDLMIDHLLFLSCHKFASNVVERCISYISDVDRRRILNKIISEKAENCSILMLMMKDKYANYVIQKLLDASPEEERDLLISYIYPHISVLKKFTYGKHLIMSVERFRQKSISAVPKLASKECK
Take B3: in assay [4], the stimulation of Ccr4–Not-mediated deadenylation (in vitro targeted deadenylation assay, t1/2) was determined as 2 fold. The Kd in assay [5] is 420 nM.

B4: Puf3 residues 158–258, GST–lipoyl tag fusion with no PUM domain (domain or fragment)
chain: SSSLSGLHSDLRPLKTELYGQLNSECGARFPQTLKSPLTPIGGDSARTVSASTARTSDKFFPRHTRAHSDFWIPATSKPSRHASHSSIGDLTTITQSSISS
With B4, the Kd in assay [1] was 7000 nM.

B5: 1-158 (protein)
chain: MFTAVNSNPNASESISGNSAFNFPSAPVSSLDTNNYGQRRPSLLSGTSPTSSFFNSSMISSNYTFPHGSNKQASLESPVSYSNPIPSLTWLSLDGDSPDSLVSTPTAPSANHHGNPFPNGKQSIKAMPSLVNLQEDSVISKFPNSLEVPFRKRSESTSQSRVLYLFHANKQRHFELSDILGNVVLFSTDQHGSRFIQQKLATATEEEREAVFQEIASTSCLQLMMDIFGNYVVQKYFEFGNEKQKQILLSQIKGHVFSLSLQMYGCRVVQKAIEYISPEHQVQLIQELDGHVLDCVCDQNGNHVIQKAIECIDTGHLQFILRALRPQIHVLSAHPYGCRVIQRAIEHCHSERKLIIEELLPHILKLTQDQYGNYVVQHILRTGSESDKKYIFDLMIDHLLFLSCHKFASNVVERCISYISDVDRRRILNKIISEKAENCSILMLMMKDKYANYVIQKLLDASPEEERDLLISYIYPHISVLKKFTYGKHLIMSVERFRQKSISAVPKLASKECK
Take B5: the Kd in assay [5] was roughly 10000 nM.

B6: MBP-tagged full-length S. pombe Puf3 (natural protein)
chain: MFTAVNSNPNASESISGNSAFNFPSAPVSSLDTNNYGQRRPSLLSGTSPTSSFFNSSMISSNYTFPHGSNKQASLESPVSYSNPIPSLTWLSLDGDSPDSLVSTPTAPSANHHGNPFPNGKQSIKAMPSLVNLQEDSVISKFPNSLEVPFRKRSESTSSSLSGLHSDLRPLKTELYGQLNSECGARFPQTLKSPLTPIGGDSARTVSASTARTSDKFFPRHTRAHSDFWIPATSKPSRHASHSSIGDLTTITQSSISSGSGSFKPSWDGSFDSSLMAHQSYGTSPAFANGNSPTLKNDSSFFGSASVRPTVSPIGTSFRQSLPDISAFGIPKTETNPSEVVAPGTIPISVLPTSNFSAATPANPSLINQNGQEFLQQSRVLYLFHANKQRHFELSDILGNVVLFSTDQHGSRFIQQKLATATEEEREAVFQEIASTSCLQLMMDIFGNYVVQKYFEFGNEKQKQILLSQIKGHVFSLSLQMYGCRVVQKAIEYISPEHQVQLIQELDGHVLDCVCDQNGNHVIQKAIECIDTGHLQFILRALRPQIHVLSAHPYGCRVIQRAIEHCHSERKLIIEELLPHILKLTQDQYGNYVVQHILRTGSESDKKYIFDLMIDHLLFLSCHKFASNVVERCISYISDVDRRRILNKIISEKAENCSILMLMMKDKYANYVIQKLLDASPEEERDLLISYIYPHISVLKKFTYGKHLIMSVERFRQKSISAVPKLASKECK
Turning to B6, the Kd came out at 100 nM in assay [1] and 160 nM in assay [5].

B7: Puf3 construct spanning residues 109–208 (anisotropy) (domain or fragment)
chain: SANHHGNPFPNGKQSIKAMPSLVNLQEDSVISKFPNSLEVPFRKRSESTSSSLSGLHSDLRPLKTELYGQLNSECGARFPQTLKSPLTPIGGDSARTVSA
For the molecule B7, the Kd in assay [1] was greater than 50000 nM; in assay [5] it was greater than 40000 nM.
